Reference: patent publication US20220119534A1 (DRAGONFLY THERAPEUTICS, published 2022)
Read-outs that look alike come from different tables or passages of the source.

How the values were obtained:
[1] = target: T1, Human CLEC12A expressed on cells (Ba/F3-hCLEC12A, PL21, HL60) (human, UniProt Q5QGZ9 1-265); test: flow cytometry on PL21 AML cells
T1 construct: Ba/F3 cells transduced with human CLEC12A; PL21 and HL60 AML lines express it endogenously; also called cell surface expressed CLEC12A
T1 sequence: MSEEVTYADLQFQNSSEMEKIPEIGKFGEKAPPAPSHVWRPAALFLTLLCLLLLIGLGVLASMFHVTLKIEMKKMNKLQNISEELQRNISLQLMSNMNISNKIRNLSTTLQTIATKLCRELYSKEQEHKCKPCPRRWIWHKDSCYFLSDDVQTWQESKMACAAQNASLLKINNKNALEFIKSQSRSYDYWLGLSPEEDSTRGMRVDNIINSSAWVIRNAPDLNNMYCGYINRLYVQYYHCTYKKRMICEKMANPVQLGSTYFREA

[2] = target: T2, mFc-hNKG2D (recombinant mFc-tagged human NKG2D dimer) (human, UniProt P26718 73-216); test: SPR; after low pH hold
T2 construct: extracellular domain; Made in house; not shown: mouse Fc tag
T2 sequence (looked up): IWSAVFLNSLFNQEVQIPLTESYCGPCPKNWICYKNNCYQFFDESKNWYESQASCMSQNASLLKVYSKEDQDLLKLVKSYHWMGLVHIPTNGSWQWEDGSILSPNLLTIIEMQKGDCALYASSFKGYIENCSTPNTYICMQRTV

[3] = target: T3, Human CD16a V158 (FcγRIIIa V158) (human, UniProt P08637 17-208, biotinylated); test: SPR; after low pH hold
T3 construct: Bought recombinant receptor; also called hCD16aV; hFcγRIIIa V158

[4] = target: T4, Human CLEC12A-His (recombinant, K244 WT) (human, UniProt Q5QGZ9 65-265); test: SPR, two-state fit; control sample
T4 construct: Made in house (Dragonfly Tx); also called hCLEC12A; hCLEC12A-His; not shown: His tag
T4 sequence: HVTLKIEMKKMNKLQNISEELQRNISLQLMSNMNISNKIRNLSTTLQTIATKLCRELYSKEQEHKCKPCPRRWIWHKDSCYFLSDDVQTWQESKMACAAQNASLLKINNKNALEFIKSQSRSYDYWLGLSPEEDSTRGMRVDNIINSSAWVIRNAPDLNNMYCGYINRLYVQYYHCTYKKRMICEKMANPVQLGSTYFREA

[5] = target: T4, Human CLEC12A-His (recombinant, K244 WT); test: SPR, two-state fit; control sample; remark: listed apart in the source
[6] = target: T5, Human CD32b (FcγRIIb) (human, UniProt P31994 46-217, limits assumed, biotinylated); test: SPR 25C, average
T5 construct: Bought recombinant receptor; also called hFcγRIIb; CD32b (FcγR2b)
T5 sequence (looked up): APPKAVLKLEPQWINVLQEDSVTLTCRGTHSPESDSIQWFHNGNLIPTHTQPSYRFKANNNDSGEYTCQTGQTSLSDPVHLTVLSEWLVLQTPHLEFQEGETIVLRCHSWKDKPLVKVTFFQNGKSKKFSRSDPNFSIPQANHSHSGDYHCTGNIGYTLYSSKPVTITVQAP

T3 sequence (P08637 17-208 F176V limits assumed): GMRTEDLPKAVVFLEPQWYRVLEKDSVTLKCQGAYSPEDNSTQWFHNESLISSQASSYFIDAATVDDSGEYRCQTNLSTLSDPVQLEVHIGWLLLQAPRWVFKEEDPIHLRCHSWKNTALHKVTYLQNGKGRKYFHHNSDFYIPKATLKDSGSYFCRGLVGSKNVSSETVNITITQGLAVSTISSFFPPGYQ

EC50 [1]: 0.45 nM
Kd [2]: 941 nM
koff [2]: 0.15 s⁻¹
kon [2]: 159000 M⁻¹ s⁻¹
Kd [3]: 314 nM
koff [3]: 0.0274 s⁻¹
kon [3]: 87300 M⁻¹ s⁻¹
Kd [4]: 0.7 nM
Kd [5]: 0.9 nM
Kd [6]: 6300 nM
B1: AB0089 TriNKET (bispecific antibody, human IgG1, kappa)
chain: QLQLQESGPGLVKPSETLSLTCTVSGFSLTNYGLHWIRQPPGKCLEWIGVIWVGGATDYNPSLKSRVTISVDTSKNQFSLKLSSVQAADTAVYYCAKGDYGDTLDYWGQGTLVTVSSGGGGSGGGGSGGGGSGGGGSDIQMTQSPSSLSASVGDRVTITCHASQNINFWLSWYQQKPGKAPKLLIYEASNLHTGVPSRFSGSGSGTDFTLTISSLQPEDFATYYCQQSHSYPLTFGCGTKLEIKGSDKTHTCPPCPAPELLGGPSVFLFPPKPKDTLMISRTPEVTCVVVDVSHEDPEVKFNWYVDGVEVHNAKTKPREEQYNSTYRVVSVLTVLHQDWLNGKEYKCKVSNKALPAPIEKTISKAKGQPREPRVYTLPPCRDELTKNQVSLTCLVKGFYPSDIAVEWESNGQPENNYKTTPPVLVSDGSFTLYSKLTVDKSRWQQGNVFSCSVMHEALHNHYTQKSLSLSPG
heavy: EVQLVESGGGLVKPGGSLRLSCAASGFTFSSYSMNWVRQAPGKGLEWVSSISSSSSYIYYADSVKGRFTISRDNAKNSLYLQMNSLRAEDTAVYYCARGAPIGAAAGWFDPWGQGTLVTVSSASTKGPSVFPLAPSSKSTSGGTAALGCLVKDYFPEPVTVSWNSGALTSGVHTFPAVLQSSGLYSLSSVVTVPSSSLGTQTYICNVNHKPSNTKVDKKVEPKSCDKTHTCPPCPAPELLGGPSVFLFPPKPKDTLMISRTPEVTCVVVDVSHEDPEVKFNWYVDGVEVHNAKTKPREEQYNSTYRVVSVLTVLHQDWLNGKEYKCKVSNKALPAPIEKTISKAKGQPREPQVCTLPPSRDELTENQVSLTCLVKGFYPSDIAVEWESNGQPENNYKTTPPVLDSDGSFFLYSWLTVDKSRWQQGNVFSCSVMHEALHNHYTQKSLSLSPG
light: DIQMTQSPSSVSASVGDRVTITCRASQGISSWLAWYQQKPGKAPKLLIYAASSLQSGVPSRFSGSGSGTDFTLTISSLQPEDFATYYCQQGVSFPRTFGGGTKVEIKRTVAAPSVFIFPPSDEQLKSGTASVVCLLNNFYPREAKVQWKVDNALQSGNSQESVTEQDSKDSTYSLSSTLTLSKADYEKHKVYACEVTHQGLSSPVTKSFNRGEC
notes: F3' format heterodimer of three chains; human IgG1 Fc with EW-RVT and Y349C/S354C mutations; also called AB0089 Lot AB0089-002; CLEC12A TriNKET AB0089
